{"source": "patent US7276370", "about": "(DONALD DANFORTH PLANT SCIENCE CENTER, dated 2007)", "proteins": {"B1": {"name": "Rf2a transcription factor (other)", "chain": "MNREKSPIPGDGGDGLPPQATRRAGPPAAAAAAEYDISRMPDFPTRNPGHRRAHSEILSLPEDLDLCAAGGGDGPSLSDENDEELFSMFLDVEKLNSTCGASSEAEAESSSAAAHGARPKHQHSLSMDESMSIKAEELVGASPGTEGMSSAEAKKAVSAVKLAELALVDPKRAKRIWANRQSAARSKERKMRYIAELERKVQTLQTEATTLSAQLALLQRDTSGLTTENSELKLRLQTMEQQVHLQDALNDTLKSEVQRLKVATGQMANGGGMMMNFGGMPHQFGGNQQMFQNNQAMQSMLAAHQLQQLQLHPQAQQQQVLHPQHQQQQPLHPLQAQQLQQAARDLKMKSPMGGQSQWGDGKSGSSGN", "notes": "The 5' primer encodes an extra Met-Glu-Lys before MNREKS; Crude E. coli protein extract was used in the EMSA; also called rice transcription factor Rf2a"}}, "molecular_target": "the molecule itself", "assay": "EMSA, E. coli protein extract with 32P-labeled BoxIIml DNA probe; homodimer inferred from the shifted band", "description": "FIG. 5: Electrophoretic mobility shift assay (EMSA) of Rf2a and the 3Δ mutant of Rf2a. Oligonucleotides containing the BoxIIml sequences (Yin et al., 1997a) were used as ^32P-labeled probe or an unlabeled competitor in an EMSA with 500 ng of *E. coli* protein containing 3Δ protein or Rf2a. Unbound probe is located near the bottom of the gel. The band with the greatest mobility in lanes 1, 2, 4, and 5 indicated by x is presumed to result from binding with an uncharacterized protein that co-purifies with the target protein. Lane 1, protein prepared from *E. coli* without induction. Lane 2, reaction with extracts of *E. coli* that produce Rf2a. Lane 3, reaction with equimolar amounts of Rf2a and 3Δ plus 80× fold molar excess of unlabeled competitor probe relative to the labeled probe. Lane 4, reaction with equimolar amounts of Rf2a and 3Δ. Lane 5, reaction with 3Δ.\nElectrophoretic mobility shift assays (EMSAs). EMSAs were carried out essentially as described by Yin and Beachy (7). 500 ng of *E. coli* protein extracts were incubated with 32_P labeled DNA probes comprising Box IIml that was constructed using annealed oligonucleotides (10). For competition EMSA, unlabeled oligonucleotides were added to the binding reactions at 80 fold molar excess relative to the labeled probe (see FIG. 5).", "data": [{"protein": "B1", "values": [{"measurement": "binding result", "value": "binds"}]}]}
